According to patent US20250122278A1, “ANTI-INTERLEUKIN-9 ANTIBODY AND USE THEREOF” (GUANGDONG KEGUANDA PHARMACEUTICAL TECHNOLOGY CO., LTD., priority 2022, published 2025):
Numbering of substitutions follows the chain as printed.

What was measured:
IL-9 = target: T1, IL-9 (Homo sapiens, UniProt P15248); experiment: ELISA binding of humanized antibodies to the target antigen; conditions: ELISA of culture supernatant of 293F cells, control chimeric antibody CA1
T1 construct: pcDNA3.4-IL9 (19-144)-His (P15248); His (C); made in house; host or cells: 293F cells (transient transfection)
Procedure: ELISA was conducted according to a standard protocol to determine the affinity of a purified antibody for the IL-9-His recombinant protein. In short, the IL-9-His recombinant protein was diluted with sterile PBS and added at 100 μL/well to a 96-well plate. The plate was incubated at 4° C. overnight and then blocked with a blocking buffer. 100 μL of a purified anti-IL-9 antibody serially diluted was added to the plate, and the plate was incubated for 1 h at room temperature. PBS was added to a control well. The plate was washed with PBST 3 times. Then 100 μL of horseradish peroxidase (HRP)-labeled anti-mouse IgG H&L (BIODRAGON, CAT #BF03001) was added, and the plate was incubated for 1 h at room temperature. The plate was washed with PBST 3 times. Then a chromogenic reaction was conducted with a 3,3′,5,5′-tetramethylbenzidine (TMB) chromogenic solution at room temperature. An OD value in each well was read by a microplate reader. Data was processed with PRISM GraphPad, and curves were plotted. The EC50 value for each candidate antibody was calculated.
Humanized antibody expression vectors carrying a designed heavy-chain or light-chain sequence were transiently transfected into 293F cells in pairs, and then a resulting culture supernatant was collected. According to a standard protocol (with reference to part 5.1 in Example 1), with a human-mouse chimeric antibody CA1 constructed with VH and VL of the original murine antibody as a control, the binding of a humanized antibody to a target antigen was detected by ELISA. The method for ELISA was the same as described in 5.1 of Example 1. […] In the follow-up experiments, the four combinations of VH1−VL2, VH1−VL4, VH2−VL4, and VH3−VL4 (hu.CA1 to hu.CA4) were taken as examples for antibody purification and function testing. […]

IL-9 antigen protein = target: T2, IL-9 antigen protein (Homo sapiens, UniProt P15248); experiment: ForteBio (BLI) affinity detection; format: binding; conditions: antibody immobilized on Protein A sensor, antigen 7.81-125 nM
T2 construct: pcDNA3.4-IL9 (19-144)-His (P15248) and pLVX-Fc2-IL9 (19-144)-Puro; made in house; host or cells: 293F cells (transient transfection)
Procedure: The affinity of a humanized antibody was detected by ForteBio (BLI). The chimeric (as a control) and humanized antibodies were immobilized with a Protein A sensor (SARTORIUS, Cat #18-5010) at an immobilization height of about 1 nm. An antigen protein sample was serially diluted with PBS to 125 nM, 62.5 nM, 31.25 nM, 15.625 nM, 7.81 nM, and 0 nM. An affinity detection procedure was as follows: equilibration for 60 s, binding for 180 s, and dissociation for 180 s.

[1] = tested on: bleomycin mouse model of pulmonary fibrosis; experiment: Bleomycin mouse pulmonary fibrosis model; format: in vivo
Procedure: (§1) 6 to 8-week-old male C57BL/6J mice (purchased from Guangdong Sijiajingda Biotechnology Co., Ltd., license No.: SCXK (Guangdong) 2020-0052) were grouped, modeled, and administered according to the protocols shown in Tables 6 and 7 below. The modeling with bleomycin (Nippon Kayaku, 15 mg powder, and dose: 1.5 mg/kg) and silica (SiO2, sigma, USA, S5631-500 g, and dose: 2.5 mg/mouse) was started on day 0 (DO). The administration was started on day 1 (D1), and normal saline was adopted as a solvent for an antibody. A positive drug pirfenidone (Beijing Kangdini Pharmaceutical Co., Ltd., 100 mg capsule) was adopted in a positive control group, and the humanized antibody hu.CA1 (VH1−VL2) of the present application was adopted in an anti-IL-9 antibody group.
(§2) A body weight of each mouse was measured every day. After the bleomycin model group was administered for 21 d and the silica model group was administered for 30 d, mice were sacrificed to collect lung tissues. The lung tissues each were stained to detect pathological changes in the lung tissues. Specifically, a degree of alveolar inflammation was detected through HE staining (an HE staining kit was purchased from Shanghai Beyotime Biotechnology, C0105M). A degree of pulmonary fibrosis was detected through Masson staining (a Masson staining kit was purchased from Nanjing Jiancheng Institute of Biological Engineering, D026-1-2). Scoring criteria for the HE staining and Masson staining were shown in Table 8 and Table 9 below, respectively (as shown in references: Matute-Bello G, Downey G, Moore B B, et al. An official American Thoracic Society workshop report: features and measurements of experimental acute lung injury in animals. Am J Respir Cell Mol Biol. 2011; 44 (5): 725-738. doi: 10.1165/rcmb.2009-0210ST and Lee Hyun Ju, Goo Jin Mo, Kim Na Ra et al. Semiquantitative measurement of murine bleomycin-induced lung fibrosis in in vivo and postmortem conditions using microcomputed tomography: correlation with pathologic scores—initial results. [J].Invest Radiol, 2008, 43: 453-60).

[2] = tested on: silica mouse model of pulmonary fibrosis; experiment: Silica mouse pulmonary fibrosis model; format: in vivo, C57BL/6J mice
Procedure: as §1, §2

[3] = target: T3, IL-9-His recombinant protein (UniProt P15248 19-144); experiment: BLI (ForteBio), antibody on Protein A sensor, antigen 7.81-125 nM in solution
T3 construct: range 19-144; used as coating antigen in the ELISAs; also called IL9 (19-144)-His; not shown: His tag, C-terminal by the vector name

[4] = target: T3, IL-9-His recombinant protein; experiment: ELISA on coated IL-9-His, OD450; unit taken from the x axis, the table prints none
Procedure: (§3) ELISA was conducted according to a standard protocol to determine the affinity of a purified antibody for the IL-9-His recombinant protein. In short, the IL-9-His recombinant protein was diluted with sterile PBS and added at 100 μL/well to a 96-well plate. The plate was incubated at 4° C. overnight and then blocked with a blocking buffer. 100 μL of a purified anti-IL-9 antibody serially diluted was added to the plate, and the plate was incubated for 1 h at room temperature. PBS was added to a control well. The plate was washed with PBST 3 times. Then 100 μL of horseradish peroxidase (HRP)-labeled anti-mouse IgG H&L (BIODRAGON, CAT #BF03001) was added, and the plate was incubated for 1 h at room temperature. The plate was washed with PBST 3 times. Then a chromogenic reaction was conducted with a 3,3′,5,5′-tetramethylbenzidine (TMB) chromogenic solution at room temperature. An OD value in each well was read by a microplate reader. Data was processed with PRISM GraphPad, and curves were plotted. The EC₅₀ value for each candidate antibody was calculated.

[5] = target: T4, biotin-conjugated IL-9-Fc (Biotin-IL-9-Fc) (UniProt P15248 19-144, biotin-conjugated (sites not given)); experiment: flow cytometry blocking assay (IL9-IL9R blocking determination): serially diluted antibody against the binding of Biotin-IL-9-Fc to 293-IL-9R cells (IL-9R), MFI; unit taken from the x axis, the table prints none
T4 construct: range 19-144; also called Fc-IL-9 recombinant protein; Fc-IL-9; not shown: Fc tag (Fc2 in the vector name pLVX-Fc2-IL9 (19-144)-Puro)

[6] = target: T3, IL-9-His recombinant protein; experiment: ELISA on IL-9-His, 293F culture supernatant, antibody concentration 1 µg/mL
Procedure: as §3

[7] = target: T3, IL-9-His recombinant protein; experiment: ELISA on IL-9-His, 293F culture supernatant, antibody concentration 2 µg/mL
Procedure: as §3

[8] = target: T3, IL-9-His recombinant protein; experiment: ELISA on IL-9-His, 293F culture supernatant, antibody concentration 1 µg/mL (second well)
Procedure: as §3

[9] = target: T3, IL-9-His recombinant protein; experiment: ELISA on IL-9-His, 293F culture supernatant, antibody concentration 2 µg/mL (second well)
Procedure: as §3

[10] = target: T4, biotin-conjugated IL-9-Fc …; experiment: flow cytometry blocking assay (IL-9-IL-9R blocking determination): serially diluted chimeric antibody against the binding of Biotin-IL-9-Fc to 293-IL-9R cells (IL-9R), MFI; unit taken from the x axis, the table prints none
Procedure: The plate was washed with PBS once. […] Washing was conducted with PBS, and then resuspension was conducted with PBS. Flow cytometry was conducted.

T2 sequence (P15248 19-144): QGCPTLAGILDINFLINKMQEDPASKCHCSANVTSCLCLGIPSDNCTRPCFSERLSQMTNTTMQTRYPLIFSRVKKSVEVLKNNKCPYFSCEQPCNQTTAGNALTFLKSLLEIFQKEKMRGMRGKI
T4 sequence (P15248 19-144 limits assumed, form in doubt): as the sequence (P15248 19-144) above
T3 sequence (P15248 19-144 limits assumed, form in doubt): as the sequence (P15248 19-144) above
T1 sequence (P15248 19-144): as above

B1: humanized antibody VH1-VL2 (hu.CA1) (antibody, V domains shown)
VH: EVQLKQSGAEVMKPGASVKVSCKATGYTFTGYWIEWVRLAPGHGLEWMGEILPGSGSTNYNQKFQGRVTFTADTSINTAYMELSRLRSDDTAIYYCARRTYYYGIPEDYWGQGTLVTVSS
VL: DIVMTQSQKFFSTSTGDRVTITCRASQNVGTNVAWHQQKPGQSPKPLIYSASYRYSGVPSRFTGSGSGTDFTLTISNLQSEDFAEYFCQQYNSYPLTFGAGTKLEIK
notes: IgG1 / kappa by the vectors pcDNA3.4-IgG1 and pcDNA3.4-IgKc; also called humanized VH1-VL2 antibody
binding to IL-9 (IL-9): bind to IL-9 with high affinity
Koff (IL-9 antigen protein): 0.002535 s⁻¹
Kon (IL-9 antigen protein): 1.066e+06 M⁻¹ s⁻¹
collagen fibers and fibrosis regions of lung tissues (Masson staining) ([1]; bleomycin model, 21 d): significantly reduced
inflammation score compared with pirfenidone group ([1]; bleomycin model, 21 d, HE staining): slightly lower than the pirfenidone group
inflammation score ([1]; bleomycin model, 21 d, HE staining, FIG. 9B): significantly reduce an inflammation score
fibrosis score ([1]; bleomycin model, 21 d, Masson staining, FIG. 10B): significantly reduce a fibrosis score
lung tissue structures (HE staining) ([1]; bleomycin model, 21 d, antibody 100 μg i.p. every other day, pirfenidone 300 mg/kg intragastric daily): improved
body weights over time ([1]; bleomycin model, compared with negative and positive control groups, FIG. 8A): changed in a same trend
safety ([1]; conclusion from body weights in bleomycin and silica models): excellent safety
collagen fibers and fibrosis regions of lung tissues (Masson staining) ([2]; 30 d): significantly reduced
inflammation score ([2]; 30 d, HE staining, FIG. 11B): significantly reduce an inflammation score
fibrosis score ([2]; 30 d, Masson staining, FIG. 12B): reduce a fibrosis score
lung tissue structures (HE staining) ([2]; 30 d, antibody 100 μg i.p. every other day, pirfenidone 300 mg/kg intragastric daily): improved
body weights over time ([2]; compared with negative and positive control groups, FIG. 8B): changed in a same trend
Kd [3]: 2.38 nM
koff [3]: 0.00253 s⁻¹
kon [3]: 1.07e+06 M⁻¹ s⁻¹
EC50 [4]: 0.035 µg/mL
EC50 [5]: 5.89 µg/mL

B2: CA1: human-mouse chimeric IgG1/kappa antibody with VH and VL of murine 38-D8-C7-G9 (antibody, V domains shown)
VH: EVQLKQSGAELMKPGASVKLSCKATGYTFTGYWIEWVKLRPGHGLEWIGEILPGSGSTNYNEEFKGKATFTADTSSNTAYMQLNSLTTEDSAIYYCARRTYYYGIPEDYWGQGTSVTVSS
VL: B1 VL with F11M, T15V, T20S, I21V, R24K, S60D, L78V, F83L, I106L
Koff (IL-9 antigen protein): 0.0009336 s⁻¹
Kon (IL-9 antigen protein): 2.13e+06 M⁻¹ s⁻¹

B3: humanized antibody VH1-VL4 (hu.CA2) (antibody, V domains shown)
VH: B1 VH
VL: B1 VL with Q8P, F11L, T13A, T15V, R24K, S80P
notes: IgG1 / kappa by the vectors pcDNA3.4-IgG1 and pcDNA3.4-IgKc; also called humanized VH1-VL4 antibody
binding to IL-9 (IL-9): bind to IL-9 with high affinity
Koff (IL-9 antigen protein): 0.002206 s⁻¹
Kon (IL-9 antigen protein): 1.165e+06 M⁻¹ s⁻¹
Kd [3]: 1.89 nM
koff [3]: 0.00221 s⁻¹
kon [3]: 1.16e+06 M⁻¹ s⁻¹
EC50 [4]: 0.0127 µg/mL
EC50 [5]: 8.18 µg/mL

B4: humanized antibody VH3-VL4 (hu.CA4) (antibody, V domains shown)
VH: B1 VH with K5V, H43Q, F64L, I76T, S84R, R85S
VL: B1 VL with Q8P, F11L, T13A, T15V, R24K, S80P
notes: IgG1 / kappa by the vectors pcDNA3.4-IgG1 and pcDNA3.4-IgKc
EC50 [4]: 0.0323 µg/mL
EC50 [5]: 11.3 µg/mL

B5: humanized antibody VH2-VL4 (hu.CA3) (antibody, V domains shown)
VH: B1 VH with K5V, H43Q, I76T, R85S, D89E
VL: B1 VL with Q8P, F11L, T13A, T15V, R24K, S80P
notes: as for B4
EC50 [4]: 0.0329 µg/mL
EC50 [5]: 11.7 µg/mL

B6: 22-F2-E9-C8 chimeric antibody (CA4) (antibody, V domains shown)
VH: EVQVVESGPGLVKPSQSLSLTCSVTGSSFTSGYYWNWIRQFPGNKLEWMGYIRYDGSNNYNPSLKNRISITRDTSKNQFFLKLNSVTSEDTATYYCASYGSSYDAMDYWGQGTSVTVSS
VL: DIQLTQPPASLSASVGETVTITCRASENIDSYLAWYQQKQGKSPQLLVYAATLLADGVPSRFSGSGSGTQYSLKINSLQSEDVARYYCQHYYSTPWTFGGGTKLELK
ELISA OD450 [6]: 2.63 OD450
ELISA OD450 [7]: 2.45 OD450
ELISA OD450 [8]: 2.59 OD450
ELISA OD450 [9]: 2.43 OD450
EC50 [10]: 2.96 µg/mL

B7: 31-D6-B8-B8 chimeric antibody (CA2) (antibody, V domains shown)
VH: B6 VH with V4L, V5K, S27Y, F29S, N58S, Y60H, S88T, S101I, S102T
VL: B6 VL
ELISA OD450 [6]: 2.66 OD450
ELISA OD450 [7]: 2.49 OD450
ELISA OD450 [8]: 2.62 OD450
ELISA OD450 [9]: 2.46 OD450
EC50 [10]: 15.8 µg/mL

B8: 29-B9-F5-B6 chimeric antibody (CA3) (antibody, V domains shown)
VH: EVQLQESGAELMKPGASVKISCKATGYTFSSYWIEWVKQRPGHGLEWIGQILPGSGSNNYNERFKGKATFTADTSSNTAYMQLSSLTSEDSAVYYCAREGNYGEAWFAYWGQGTLVTVSA
VL: DILLTQSPATLSVTPGDSVSLSCRASQSISNNLHWYQQKSHESPRLLIKYASQSMSGIPSRFSGSGSGTDFTLSINSVETEDFGMYFCQQSNSWPLTFGAGTKLELK
ELISA OD450 [6]: 2.71 OD450
ELISA OD450 [7]: 2.56 OD450
ELISA OD450 [8]: 2.62 OD450
ELISA OD450 [9]: 2.45 OD450
EC50 [10]: 8.47 µg/mL
